For orientation: Kd means the constant that tells how readily two partners part at equilibrium. A high value points to a looser complex. By koff is commonly meant the first-order rate constant of dissociation. A high value points to fast dissociation. The kon is a measure of how fast the partners come together. Read a high kon as fast association.

What all share (experiment): SPR
Background: Surface plasmon resonance follows binding to a sensor surface in real time, without labels.

For assay [1], the target named is C-terminal His6-tagged SAUDG (S. aureus uracil-DNA glycosylase) (S. aureus) (UniProt Q6GJ88).
For assay [2], the target named is C-terminal His6-tagged human UDG (uracil-DNA glycosylase) (human).
For assay [3], the target named is T1, C-terminal His6-tagged SAUDG (S. aureus uracil-DNA glycosylase) (S. aureus, UniProt Q6GJ88 1-218).
T1 sequence (looked up): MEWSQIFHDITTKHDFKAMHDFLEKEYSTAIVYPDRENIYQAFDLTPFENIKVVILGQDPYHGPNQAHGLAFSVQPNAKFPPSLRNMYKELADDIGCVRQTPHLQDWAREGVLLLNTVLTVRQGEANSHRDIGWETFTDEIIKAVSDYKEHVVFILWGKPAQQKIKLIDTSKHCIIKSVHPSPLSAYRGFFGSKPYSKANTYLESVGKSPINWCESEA

In assay [1], “tag-free SAUGI (Staphylococcus aureus uracil-DNA glycosylase inhibitor) (natural protein)” showed a Kd of 1.2 nM, a koff of 0.00296 s⁻¹ and a kon of 2.47e+06 M⁻¹ s⁻¹. For the same molecule, in assay [2], the Kd is 2.51 nM, the koff was 0.00124 s⁻¹ and the association rate constant (kon) came out at 496000 M⁻¹ s⁻¹.
In assay [2], “uracil-DNA glycosylase inhibitor from phage PBS2 (UGI) (from UniProt P14739 1-84) (natural protein)” yielded a dissociation constant Kd of 0.189 nM, a koff of 0.00119 s⁻¹ and an on-rate (kon) of 6.32e+06 M⁻¹ s⁻¹.

B1: uracil-DNA glycosylase inhibitor from phage PBS2 (UGI) (natural protein)
chain: MTNLSDIIEKETGKQLVIQESILMLPEEVEEVIGNKPESDILVHTAYDESTDENVMLLTSDAPEYKPWALVIQDSNGENKIKML
In assay [3], B1 gave a Kd of 0.685 ± 0.08 nM, a koff of 0.0061 ± 0.00068 s⁻¹ and a kon of 8.9e+06 ± 419000 M⁻¹ s⁻¹.
